Test results taken from PMC11077084, “Biochemical characterization of the meiosis-essential yet evolutionarily divergent topoisomerase VIB-like protein MTOPVIB from Arabidopsis thaliana” (Nucleic Acids Research, 2024).

Tests used:
[1] = molecular target: T1, N. equitans Topo VI complex (Topo VIA•Topo VIB) (Nanoarchaeum equitans, UniProt Q74N98); test: radioisotope-based ATPase assay; also ATP-agarose pulldown; format: biochemical; details: labelled compound (gamma-32P) in the ATPase assay
T1 construct: gene top6B; codon-optimized Topo VIA and VIB co-expressed from pETDuet in E. coli Rosetta (DE3) pLysS; heat step, Ni-NTA; A2B2 heterotetramer; with Type 2 DNA topoisomerase 6 subunit A
T1 sequence (Q74N98 1-567): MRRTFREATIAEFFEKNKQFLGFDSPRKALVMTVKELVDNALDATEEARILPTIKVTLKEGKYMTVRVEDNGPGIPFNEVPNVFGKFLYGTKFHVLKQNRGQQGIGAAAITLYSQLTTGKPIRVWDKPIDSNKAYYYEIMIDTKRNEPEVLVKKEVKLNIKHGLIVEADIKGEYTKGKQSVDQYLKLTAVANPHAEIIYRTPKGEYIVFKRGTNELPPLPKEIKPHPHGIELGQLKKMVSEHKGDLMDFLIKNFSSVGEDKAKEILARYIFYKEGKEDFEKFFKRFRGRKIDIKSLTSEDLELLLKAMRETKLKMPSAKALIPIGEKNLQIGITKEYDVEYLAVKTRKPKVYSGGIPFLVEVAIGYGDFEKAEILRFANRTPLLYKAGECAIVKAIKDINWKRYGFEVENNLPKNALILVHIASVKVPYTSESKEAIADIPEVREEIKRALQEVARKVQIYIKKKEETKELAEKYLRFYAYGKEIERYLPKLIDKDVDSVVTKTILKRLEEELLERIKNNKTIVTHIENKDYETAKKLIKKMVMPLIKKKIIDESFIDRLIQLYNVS
T1 sequence (Q74M54 1-359 partner): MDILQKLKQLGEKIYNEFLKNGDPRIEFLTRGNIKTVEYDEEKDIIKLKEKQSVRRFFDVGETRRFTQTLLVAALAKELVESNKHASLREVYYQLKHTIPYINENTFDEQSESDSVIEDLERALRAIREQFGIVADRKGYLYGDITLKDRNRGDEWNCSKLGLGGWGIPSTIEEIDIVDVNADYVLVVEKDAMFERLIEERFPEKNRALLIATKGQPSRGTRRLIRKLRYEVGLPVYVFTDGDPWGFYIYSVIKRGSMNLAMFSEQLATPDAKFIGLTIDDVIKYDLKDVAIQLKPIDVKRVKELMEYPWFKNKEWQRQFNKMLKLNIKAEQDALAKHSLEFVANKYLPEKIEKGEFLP

[2] = molecular target: the molecule itself; test: SEC; Hi-Load Superdex 200 in D buffer without imidazole and glycerol, last step of the purification; monomer to dimer
MTOPVIB = molecular target: T2, MTOPVIB (Arabidopsis thaliana, UniProt Q5Q0E6 1-473); test: SPR; reaction buffer F, 0.05% Tween 20, 23 C; 1:1 global fit; EMSA: reaction buffer F (composition not in material) + 0.1 mg/ml BSA, 23 C, 30 min, 0.8% agarose-TBE at 4 C (6% PAGE for the competition); SPR: buffer F + 0.05% Tween 20, 23 C; details: protein: recombinant; tags: none (His6-MBP removed by PreScission); chain copies: 2; label: 5' biotin on Oligo 1; blunt
T2 sequence: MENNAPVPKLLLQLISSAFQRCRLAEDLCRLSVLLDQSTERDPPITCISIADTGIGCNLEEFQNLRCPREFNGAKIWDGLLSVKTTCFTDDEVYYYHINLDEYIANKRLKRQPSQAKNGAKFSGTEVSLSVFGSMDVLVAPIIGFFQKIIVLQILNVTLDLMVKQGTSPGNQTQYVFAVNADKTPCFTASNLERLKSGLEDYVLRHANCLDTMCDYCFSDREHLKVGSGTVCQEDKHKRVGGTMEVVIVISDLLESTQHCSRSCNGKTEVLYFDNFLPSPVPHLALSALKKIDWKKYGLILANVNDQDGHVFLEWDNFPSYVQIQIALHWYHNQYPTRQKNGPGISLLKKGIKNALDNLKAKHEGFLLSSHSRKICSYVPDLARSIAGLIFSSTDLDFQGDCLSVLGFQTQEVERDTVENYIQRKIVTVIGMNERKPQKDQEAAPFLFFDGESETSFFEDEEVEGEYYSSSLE

[3] = molecular target: the molecule itself; test: SEC; purified MBP-tagged MTOPVIB on a Superdex 200 Increase 10/300 GL column calibrated with size standards; without ATP; monomer to dimer

**Q.** How did the “radioisotope-based ATPase assay; also ATP-agarose pulldown” value [1] turn out when `Nc1ncnc2c1ncn2[C@@H]1O[C@H](COP(=O)(O)OP(=O)(O)OP(=O)(O)O)[C@@H](O)[C@H]1O` [ATP] was run?
**A.** Its value is “unlike the Topo VI complex that hydrolyzed ATP to release”.

B1: Nanoarchaeum equitans Topo VIB (expressed alone from pET21b) (natural protein, UniProt Q74N98 1-567, looked up)
chain: MRRTFREATIAEFFEKNKQFLGFDSPRKALVMTVKELVDNALDATEEARILPTIKVTLKEGKYMTVRVEDNGPGIPFNEVPNVFGKFLYGTKFHVLKQNRGQQGIGAAAITLYSQLTTGKPIRVWDKPIDSNKAYYYEIMIDTKRNEPEVLVKKEVKLNIKHGLIVEADIKGEYTKGKQSVDQYLKLTAVANPHAEIIYRTPKGEYIVFKRGTNELPPLPKEIKPHPHGIELGQLKKMVSEHKGDLMDFLIKNFSSVGEDKAKEILARYIFYKEGKEDFEKFFKRFRGRKIDIKSLTSEDLELLLKAMRETKLKMPSAKALIPIGEKNLQIGITKEYDVEYLAVKTRKPKVYSGGIPFLVEVAIGYGDFEKAEILRFANRTPLLYKAGECAIVKAIKDINWKRYGFEVENNLPKNALILVHIASVKVPYTSESKEAIADIPEVREEIKRALQEVARKVQIYIKKKEETKELAEKYLRFYAYGKEIERYLPKLIDKDVDSVVTKTILKRLEEELLERIKNNKTIVTHIENKDYETAKKLIKKMVMPLIKKKIIDESFIDRLIQLYNVS
notes: Topoisomerase VI subunit B, Nanoarchaeum equitans, codon-optimized cDNA in the Nde1 and Xho1 sites of pET21b; The tag is inferred from the vector and the Ni-NTA step; also called N. equitans Topo VIB; source: E. coli Rosetta (DE3) pLysS, purified (Ni-NTA, HiPrep SP XL, Hi-Load Superdex 200)
**Q.** Which “stoichiometry N” value [2] does the source give for B1 here?
**A.** The value was 2.

B2: 80 bp dsDNA, biotinylated (dsDNA)
DNA 1: TTATGTTCATTTTTTATATCCTTTACTTTATTTTCTCTGTTTATTCATTTACTTATTTTGTATTATCCTTATCTTATTTA
DNA 2: TAAATAAGATAAGGATAATACAAAATAAGTAAATGAATAAACAGAGAAAATAAAGTAAAGGATATAAAAAATGAACATAA
**Q.** Which Kd (MTOPVIB) does the source give for B2 here?
**A.** Its Kd is about 0.15 µM.

B3: A. thaliana His6-MBP-MTOPVIB (natural protein, UniProt Q5Q0E6 1-473, looked up)
chain: MENNAPVPKLLLQLISSAFQRCRLAEDLCRLSVLLDQSTERDPPITCISIADTGIGCNLEEFQNLRCPREFNGAKIWDGLLSVKTTCFTDDEVYYYHINLDEYIANKRLKRQPSQAKNGAKFSGTEVSLSVFGSMDVLVAPIIGFFQKIIVLQILNVTLDLMVKQGTSPGNQTQYVFAVNADKTPCFTASNLERLKSGLEDYVLRHANCLDTMCDYCFSDREHLKVGSGTVCQEDKHKRVGGTMEVVIVISDLLESTQHCSRSCNGKTEVLYFDNFLPSPVPHLALSALKKIDWKKYGLILANVNDQDGHVFLEWDNFPSYVQIQIALHWYHNQYPTRQKNGPGISLLKKGIKNALDNLKAKHEGFLLSSHSRKICSYVPDLARSIAGLIFSSTDLDFQGDCLSVLGFQTQEVERDTVENYIQRKIVTVIGMNERKPQKDQEAAPFLFFDGESETSFFEDEEVEGEYYSSSLE
notes: a PreScission protease site lies between the tag and the protein; Tag not cleaved in the size-exclusion analysis (MBP-tagged MTOPVIB) nor during the amylose step of the complex purification; also called MBP-tagged MTOPVIB; meiotic Topo VIB-like protein; source: High Five insect cells (baculovirus); purified alone (amylose, heparin, Mono Q, Superdex 200), and co-expressed with His6-SPO11-1 and …
**Q.** For B3, which “stoichiometry N” value [3] is on record?
**A.** Its value is 2.
